B1: C580 (antibody, V domains shown)
VH: EVQLVQSGAEVKKAGESLKISCNSSGYSFTNYWIAWVRQVPGKGLEWMGIIYLGDSDTRYSPSFQGRVTISADKSISAAYLHWSSLKASDTAIYYCARGGPPGGVKLELTDFWGQGTLVTVSS
VL: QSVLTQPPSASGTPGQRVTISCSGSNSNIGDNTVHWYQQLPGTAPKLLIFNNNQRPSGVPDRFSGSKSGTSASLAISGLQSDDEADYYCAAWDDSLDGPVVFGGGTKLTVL
B2: C573 (antibody, V domains shown)
VH: QVQLQESGPGLVKPSGTLSLTCAVSGGSISTVNWWSWVRQPPGKGLEWIGEIHHSGNTNHNPSLRSRVTISVDKSKNQFSLKLRSVTAADTAVYYCARDGGRPGDAFDLWGQGTMVTVSS
VL: QSALTQPASVSGSPGQSITISCTGTSSDVGGYNYVSWYQQHPGKVPKVMIYDVSNRPSGISNRFSGSKSGNTASLTISGLQAEDEADYYCNSYRSNSTRVFGTGTKVTV
B3: C567 (antibody, V domains shown)
VH: QVQLQESGPGLVKPSETLSLTCTVSGGSVINGSYYWSWIRQPPGKGLEWIGFVYYSGSTNYNPSLKSRVTISVDTSKNQFSLNLNSVTAADTAVYYCATGSKSSYYFDYWGQGTLVTVSS
VL: QSVLTQPPSVSAAPGQKVTISCSGSSSNIGNNYVSWYQQLPGAAPKLLIYENNMRPSGIPDRFSGSKSGTSATLGITGLQTGDEADYYCGTWDSSLSVPYVFGTGTRVTVL
B4: C576 (antibody, V domains shown)
VH: QVQLVQSGAEVKKPGSSVKVSCKASGGTFSIYAISWVRQAPGQGLEWMGGIIPILGTANYAQKFQGRVTITADESTSTAYMELSSLRSEDTAVYYCASFHVAYGDYIPFDYWGQGTLVTVSS
VL: not shown
B5: C568 (antibody, V domains shown)
VH: QVQLVQSGAEVKKPGASVKVSCTASGYTFSSYYIHWVRQAPGQGLEWMGIINPGAGSTSYAQKFQGRVAMTTDTSTRTVYMELSSLRSDDTAVYYCARDEAFLPSAIFVGDYWGQGTLVTVSS
VL: DIQMTQSPSSLSASVGDRVTITCRASQGIRNDLGWYQQKPGKAPKRLIYAASNLQSGVPSRFSGSGSGTEFTLTISSLQPEDFATYYCLQHSTYPHTWTFGQGTKVEIK
B6: C581 (antibody, V domains shown)
VH: EVQLVQSGAEVKKPGESLKISCKGSGYRFTSYWIAWVRQMPGKGLEWMGIIYPGDSDTRYSPSFQGQVTISADQSISTAYLQWSSLKASDTAMYYCARGGPPGGVKLELTDYWGQGALVTVSS
VL: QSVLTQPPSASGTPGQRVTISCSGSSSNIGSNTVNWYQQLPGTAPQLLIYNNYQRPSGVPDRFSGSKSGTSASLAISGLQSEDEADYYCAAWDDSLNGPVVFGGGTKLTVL
B7: C566 (antibody, V domains shown)
VH: QVQLQESGPGLVKSSQTLSLNCSVFGASISSGGYYWTWIRQHPGKGLEWIGYIHYRGTYYNPSLKSRVTMSVDTSKNQFSLKVRSVSAADTAIYYCARAIVVVTLNWFDLWGQGTLVTVSS
VL: NFMLTQPHSVSESPGKTVTISCSGSGGSIASNYVQWYQQRPGSAPTAVIYEDNQRPSGVPDRFSGSIDSSSNSASLTISGLKTEDEADYYCQSYDTSNPVIFGGGTKLTV
B8: C596 (antibody, V domains shown)
VH: QVQLVESGGGVVQPGRSLRLSCAASGITFSHYGMHWVRQAPGKGLEWVALISSDGSKKYYADSVKGRFTISRDNSKSTLYLQMNSLRAEDTAIYYCAKDLGYYYGPPYGPDYWGQGTLVTVSS
VL: DIQMTQSPSSLSASVGDRVTITCQASQDVSNSLNWYQQKPGKAPKLLIYDASNLETGVPSRFSGSGSGTDFSFTISSLQPEDIATYYCLQYDNFSMYTFGQGTKLEIK
B9: C570 (antibody, V domains shown)
VH: QVQLQESGPGLVKPSETLSLTCTVSGASISSYYWSWIRQPPGKGLEWIGYIYYSGSTNYNPSLKSRVTISLDTSKNQFSLQLSSVTAADTAVYYCATYYFDNSGYSYGLDVWGQGTTVTVSS
VL: DIQMTQSPSSLSASVGDRVTIACRASQSISSYLHWYQQQPGKAPKLLIYAVTNLQSGVPSRFSGSGSGTDFTLTISSLQPEDFATYYCQQSYSLPQTFGQGTKVEIK
B10: C569 (antibody, V domains shown)
VH: QVQLVESGGNVVQPGRSLRLSCAASGFTFSNYGMHWIRQAPGKGLEWVAVISYDGSDKYYADSVKGRVTISRDNSKNTLYLQMNSLRAEDTAVYYCAKGGPYGDHVRSDYWGLGTLVTVSS
VL: DIQMTQSPSSLSASVGDRVTITCQASQDISNYLNWYQQKPGKVPKLLIYDASNLETGVPSRFSGSGSGTDFTFTISSLQPEDIATYYCQQFHNLPLTFGQGTKLEIK
B11: C565 (antibody, V domains shown)
VH: EVQLVESGGGLIQPGGSLRLSCAASGLIVSSNYMNWVRQAPGKGLEWVSLLYSGGSTYYADSVKGRFTISRDNSKNTLYLQMNSLRPEDTAVYYCARDLSVVGAFDIWGQGTMVTVSS
VL: EIVLTQSPGTLSLSPGERATLSCRASQSLPSTYLAWYQQKRGQAPRLLIYGASSRATGIPDRFSGSGSGTDFTLTISRLEPEDFAVYYCQQYGTSPRVTFGPGTKVDIK
B12: C531 (antibody, V domains shown)
VH: EVQLVESGGGLVQPGRSLRLSCVATGFTFDDFAMHWVRQAPGKGLEWVSGISWNGGIIGYVDSVKGRFTISRDNAKNSLYLQMNSLRPEDTALYYCVKGYRYYYDILTGYYNDAGAFDYWGQGTLVTVSS
VL: DIQSTQSPSFLSASVGDRVAITCRASQGISSYLAWYQQKPGKAPKLLIYPASTLQSGVPSGFSGSGSGTEFTLTISSLQPEDFATYYCQQLNDYPFTFGPGTKVDIK
B13: C578 (antibody, V domains shown)
VH: QVQLVESGGGVVQPGRSLRLSCAASGFTFSSSGMHWVRQAPGKGLEWVAIISYDGSNKYYADSVKGRFTISRDNSKNTLSLQMNSLRAEDTAVYYCAKDPLPFRDFFYYYMDVWGKGTTVTVSS
VL: QSALTQPASVSGSPGQSITISCTGTSSDVGGYNYVSWYQQHPGKAPKLMIYDVSNRPSGVSNRFSGSKSGNTASLTISGLQAEDEADYYCSSYTSSSTLGVFGTGTKVTVL
B14: C593 (antibody, V domains shown)
VH: QVQLVQSGAEVKKPGASVKVSCKASGYTFTSYDINWVRQAPGQGLEWMGWMNPNSGNTDYAQKFQGRFTMTRNTSISTAYMELSSLRSEDTAVYYCASRRWDPLTFYYYMVVWGKGTTVTVSS
VL: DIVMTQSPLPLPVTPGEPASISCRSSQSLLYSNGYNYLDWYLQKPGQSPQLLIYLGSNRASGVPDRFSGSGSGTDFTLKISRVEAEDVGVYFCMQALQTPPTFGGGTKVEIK
B15: C574 (antibody, V domains shown)
VH: QVQLVQSGAEVKKPGASVKVSCKASGYTFTSYGFSWVRQAPGQGLEWLGWISAYNGNTNYAQKLQGRVTMTTDTSTSTAYMELRSLRSDDTAVYYCARAIAVAGTSGEFDYWGQGTLVTVSS
VL: not shown
B16: C594 (antibody, V domains shown)
VH: QVQLVESGGGVVQPGRSLRLSCAASGFTFSSYGMHWVRQAPGKGLEWVAVISDDGSNKYYADSVKGRFTISRDNSKNTLYLQMNSLRAEDTAVYYCAKSWWLSENWFDPWGQGTLVTVSS
VL: EIVMTQSPATLSVSPGERATLSCRASQSVSSNLAWYQQKPGQAPRLLIYGASTRATGIPARFSGTGSGTEFTLTISSLQSEDFAVYYCQQYNNWPLTFGGGTKVEIK
B17: C595 (antibody, V domains shown)
VH: QVQLVESGGGVVQAGRSLRLSCAASGFTFSSFGLHWVRQAPGKGLEWVAVISDDGANKYYADSVKGRFTISRDNSKNTLYLQMNSLRADDTAKYYCAKSWWLSENWFDPWGQGTLVTVSS
VL: EIVMTQSPATLSVSPGERATLSCRASQSVRSNLAWYQQKPGQAPRLLIYGASTRATGIPARFSGSGSGTDFTLTISSLQSEDFAVYYCQQYNNWPLTFGGGTKVEIK
B18: C572 (antibody, V domains shown)
VH: EVQLVESGGGLIKPGRSLRLSCTASGFTFGDYAMTWFRQAPGKGLEWVGFIRSKAYGGTTGYAASVKYRFTISRDDSKSIAYLQMDSLKTEDTAVYYCTRWDGWSQHDYWGQGTLVTVSS
VL: DIVMTQSPLSLSVTPGEPASISCRSSQSLLHSNGNNYFDWYLQKPGQSPQLLIYLASNRASGVPDRFSGSGSGTDFTLKISRVEAEDVGVYYCMQVLQIPYTFGQGTKLEI
B19: C591 (antibody, V domains shown)
VH: QVQLVQSGAEVKKPGASVKVSCKASGYILTDYFIHWVRQAPGQGLEWMGWINPNSGGTNYAQKFQGRVTMTRDTSISTAYMELSRLRSDDTAVYHCARYKGTTVNTNYYYGMDVWGQGTTVTVSS
VL: not shown
B20: C592 (antibody, V domains shown)
VH: QVQLVQSGAEVKKPGASVKVSCKASGYTFTDYFNHWVRQAPGQGLEWMGWINPNSGGTNSAQKFQGRVTMTRDTSITTVYMELSRLRSDDTAVYYCARYKGTTVNTNYYYGMDVWGQGTTVTVSS
VL: SYELTQPPSVSVSPGQTASITCSGDKLRNKYACWYQQKAGQSPMLVIYQDTKRPSGIPERFSGSNSGNTATLTISGTQAMDEADYYCQAWDISTVVFGGGTKLTVL
B21: C577 (antibody, V domains shown)
VH: QVQLVQSGAEVKKPGSSVKVSCKASGDTFSIYAFSWVRQAPGQGLQWMGAIIPLLGTTNYAQKFLGRVTITADESTSTTFMELSSLTSEDTAVYHCATFHVAYGDYIPFDSWGQGTLVIVSS
VL: not shown
B22: C571 (antibody, V domains shown)
VH: EVQLVESGGGLIQPGGSLKLSCVVSGFTVSRNYISWVRQAPGKGLEWVSVLFAGGSTFYADSVKGRFAISRDNSNNTLFLQMNSLRVEDTAIYYCARGDGELIFDQWGQGTLVTVSS
VL: QSVLTQPPSVSGAPGQRVTIVCTGTSSNIGAGYDVHWYQQLPGRAPKVLVSGNNIRPSEVPDRFSGSRSGTSASLAITSLQPEDEAQYYCQSYDSNLYAVFGGGTKLTVL
B23: C057 (antibody, V domains shown)
VH: QVQLVQSGAEVKRPGASVKLSCKASGYIFTDYSIHWVRQAPGQGLEWMGWVNPNSGGGNSAQKFMDWVTMARDTSITTVYMELSRLRSDDTAVYYCARGPLFHKLVYDSWSGYHDGFDIWGQGTMVTVSS
VL: QSALTQPASVSGSPGQSITISCTGTSSDVGAYKFVSWYQQHPGKAPQLIIYEVSNRPSGVSNRFSGSKSGNTASLTISGLQAEDEADYYCSSYTNASTWVFGGGTELTVL

What is called EC50 is the midpoint of the concentration-response curve. Read a low EC50 as a more potent agent.

The target in one test is SARS-CoV-2 spike receptor binding domain (RBD), wild type (SARS-CoV-2, UniProt P0DTC2 319-539). The test is described as follows: ELISA, RBD protein coated, mAb titrated. A general note: In an ELISA, binding on a coated surface is turned into a signal by an enzyme label.
B1 gave a half-maximal effective concentration (EC50) of 1.81 ng/mL.

The molecule B2 displayed a concentration for a half-maximal effect (EC50) of 2.2 ng/mL.

As to B3, the midpoint of the response, the EC50, lay at 18.9 ng/mL.

In the case of B4, the EC50 came to 5.29 ng/mL.

In turn, B5 registered an EC50 of 5.99 ng/mL.

For the molecule B6, the 50% effective concentration (EC50) amounted to 1.58 ng/mL.

On to B7, for which the concentration giving a half-maximal response (EC50) worked out at 5.88 ng/mL.

As to B8, the EC50 is 21 ng/mL.

B9 had a concentration giving a half-maximal response (EC50) of 0.74 ng/mL.

For B10, the 50% effective concentration (EC50) was 11.1 ng/mL.

The molecule B11 gave an EC50 of 1.27 ng/mL.

Molecule B12 gave an EC50 of 6.84 ng/mL.

On to B13, for which a half-maximal response (EC50) required 1.08 ng/mL.

B14 showed a concentration for a half-maximal effect (EC50) of 4.36 ng/mL.

For B15, a half-maximal effect (EC50) was put at 8.12 ng/mL.

In turn, B16 showed an EC50 of 2.63 ng/mL.

The molecule B17 showed an EC50 of 2.04 ng/mL.

Turning to B18, a half-maximal effect (EC50) was put at 2.9 ng/mL.

B19 registered an EC50 of 3.83 ng/mL.

The molecule B20 returned an EC50 of 6 ng/mL.

As for B21, the half-maximal effective concentration (EC50) was found to be 1.32 ng/mL.

The molecule B22 returned an EC50 of 4.62 ng/mL.

The next test deals with SARS-CoV-2 receptor binding domain (RBD), wild type (SARS-CoV-2, UniProt P0DTC2 319-539). The test is described as follows: ELISA, RBD protein coated, mAb titrated.
Turning to B23, the concentration for a half-maximal effect (EC50) was determined as 2.31 ng/mL.

For the origin of these results see patent US20220195015A1 (published 2022).
